{"source": "paper PMC12381709", "about": "“Fluorinating the Sugar and the Nucleotide: Exploring Fluorination Within GDP-Mannose Probes Using Chemoenzymatic Synthesis” (JACS Au, 2025)", "assay_in_all_cases": "purified protein", "details_in_all_cases": "co-substrate NAD+", "key": {"[1]": {"tested_on": "Nc1nc2c(ncn2[C@@H]2O[C@H](COP(=O)(O)OP(=O)(O)O[C@H]3O[C@H](CO)[C@@H](O)[C@H](O)[C@@H]3F)[C@@H](O)[C@H]2F)c(=O)[nH]1"}, "[2]": {"tested_on": "Nc1nc2c(ncn2[C@@H]2O[C@H](COP(=O)(O)OP(=O)(O)O[C@H]3O[C@H](CO)[C@@H](O)[C@H](O)[C@@H]3F)[C@@H](O)[C@H]2O)c(=O)[nH]1"}, "[3]": {"tested_on": "Nc1nc2c(ncn2[C@@H]2O[C@H](COP(=O)(O)OP(=O)(O)O[C@H]3O[C@H](CO)[C@@H](O)[C@H](O)[C@@H]3O)[C@@H](O)[C@H]2O)c(=O)[nH]1"}, "[4]": {"tested_on": "Nc1nc2c(ncn2[C@@H]2O[C@H](COP(=O)(O)OP(=O)(O)O[C@H]3O[C@H](CO)[C@@H](O)[C@H](O)[C@@H]3O)[C@@H](O)[C@H]2F)c(=O)[nH]1"}}, "data": [{"substance": "GDP-mannose dehydrogenase (GMD; PaGMD) (Pseudomonas aeruginosa PAO1)", "values": [{"measurement": "Km", "setting": "[1]", "value": "87.72 ± 5.82", "unit": "µM"}, {"measurement": "kcat", "setting": "[1]", "value": "0.0407 ± 0.0012", "unit": "s⁻¹"}, {"measurement": "Km", "setting": "[2]", "value": "134.29 ± 12.78", "unit": "µM"}, {"measurement": "kcat", "setting": "[2]", "value": "0.0655 ± 0.00267", "unit": "s⁻¹"}, {"measurement": "Km", "setting": "[3]", "value": "18.18 ± 3.82", "unit": "µM"}, {"measurement": "kcat", "setting": "[3]", "value": "0.0427 ± 0.00333", "unit": "s⁻¹"}, {"measurement": "Km", "setting": "[4]", "value": "20.95 ± 0.83", "unit": "µM"}, {"measurement": "kcat", "setting": "[4]", "value": "0.0507 ± 0.00067", "unit": "s⁻¹"}]}]}
